± gives the standard deviation of the averaged measurements.
System: ATP
Test: switch fluorescence ratio, 500 uM ATP over buffer (Cy3 cluster intensity, sum of 5 cycles each) (fold (ratio)); higher = stronger signal-on switching upon ATP binding; sequences stand for … in TCGTCGGCAGCGTCAGATGTGTATAAGAGACAGTTTTTTTTTTTTTTTTTTTTTTTTT…TC
Settings: aptamer strand: ATP DNA aptamer (quencher-CACCTGGGGGAGTATTGCGGAGGAAGG + anchor), 100 nM annealed; ATP concentration: 500 uM
Procedure, shortened: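 Cy3-labelled switching-strand clusters on a modified Illumina MiSeq flow-cell were annealed to 100 nM quencher-labelled ATP aptamer, imaged in selection buffer, then imaged after 15 min with 500 uM ATP at 22 °C. Five buffer/ATP cycles ran, with NaOH stripping and re-annealing between them. The fluorescence ratio is summed target-cycle over summed buffer-cycle Cy3 intensity per cluster, averaged per switch-domain sequence. Clusters outside 100-1000 RFU were excluded.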
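Also: ATP exposure 15 min at 22 °C before imaging.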

Sequence | switch fluorescence ratio
GTTTTCCGGG | 1.01 ± 0.027
GTTTTGTGCA | 0.9978 ± 0.0052
TCTAAAAAAG | 0.991 ± 0.028
AAATAACCGA | 1.08 ± 0.02
AGATGGGGAG | 1.04 ± 0.064
GTCGAAAGGG | 1.01 ± 0.05
TATCGACAAT | 1.37 ± 0.47
CGGAGTTAAT | 1.66 ± 0.048
ATCCCTTCCA | 1.24 ± 0.087
TTGCTCTCTT | 0.98 ± 0.083
TGGTGATGCG | 0.998 ± 0.064
GTTCTCATTT | 0.995 ± 0.025
AGGACGTAGC | 1.09 ± 0.018
AGGGGAAGCT | 1.03 ± 0.081
GTGGAGTTGG | 1.31 ± 0.44
ATAAAAAAGC | 1.02 ± 0.074
TTGAAGTTGT | 1.01 ± 0.039
AGTTTATTTT | 0.986 ± 0.034
TCAAAGTCGA | 0.976 ± 0.045
CGGGGCTTGG | 1.01 ± 0.023
TTTCATCCAA | 1.42 ± 0.48
TTCATTTCGT | 1 ± 0.024
GAGGGGGTCG | 1.02 ± 0.079

Sequence | switch fluorescence ratio
ACCAATTGAA | 1.01 ± 0.05
AAGGTCGCTG | 0.9861 ± 0.00072
CCGTGAGGTA | 1 ± 0.026
TGAGTCAATT | 0.99 ± 0.032
TAGGCGGGGT | 0.977 ± 0.05
TTAGGGGAGG | 0.9925 ± 0.0098
CGGGTCCTAA | 0.9795 ± 0.0078
TCATTCATGG | 0.977 ± 0.011
AGCGGGTGCC | 1.02 ± 0.039
TACGCTCTCA | 1.21 ± 0.23
CTGTCAGATG | 1 ± 0.025
CGGGGGCGGC | 0.974 ± 0.014
ATAAGCGGGG | 1.01 ± 0.04
TGATGGGGGG | 0.994 ± 0.021
AATAGGGGGT | 0.996 ± 0.018
GAGGGCTTAG | 0.992 ± 0.016
GAGGGATATT | 1.02 ± 0.022
ATTTACGTCT | 1.04 ± 0.056
TTAAGTTACA | 1.05 ± 0.032
GACCTCATTT | 1.04 ± 0.032
GGACGTGGTA | 1.03 ± 0.028
TCCAATTTTT | 0.986 ± 0.024
CAATGAGGAA | 1.02 ± 0.018

Sequence | switch fluorescence ratio
TGGAGCCTAT | 0.991 ± 0.031
TTAAATAACT | 1.12 ± 0.16
TCATTATGCA | 1.04 ± 0.018
TATTTCATTC | 1.03 ± 0.041
GTTCCTCGCT | 2.77 ± 0.33
CAATCTGTTA | 0.989 ± 0.027
TCTTAGGGTT | 1.02 ± 0.017
CGAAGTTTGC | 1.23 ± 0.33
GGAACGAAGA | 0.98 ± 0.028
TGTAGCATGT | 2.08 ± 1.3
ATTTTAGGTC | 0.989 ± 0.025
GATTTTTTCG | 0.997 ± 0.01
CATTTCTAGA | 0.9709 ± 0.0055
GAGCTAGGCA | 0.958 ± 0.03
TTATGATTGG | 0.987 ± 0.02
AAAAAGAAAT | 1.04 ± 0.021
CGGAACGTGC | 1.04 ± 0.045
AGAAAGAGGA | 0.987 ± 0.023
CTCTAGGGGC | 1.128 ± 0.0065
TCGGTCGGGA | 1.022 ± 0.0017
GTTGGTCCTT | 0.9928 ± 0.003
CGCCTTGGTT | 1.02 ± 0.013
CCGATACGGG | 1.072 ± 0.0082

Sequence | switch fluorescence ratio
CCTTTTGGAT | 1.07 ± 0.073
AGGGGTTCCG | 0.979 ± 0.042
TGAGGAGGGG | 0.989 ± 0.048
GGGGGCTGCG | 1.04 ± 0.051
AATGTTTGAC | 0.977 ± 0.038
TCCGGAATGG | 4.16 ± 0.47
AAGTGTAAAA | 1 ± 0.038
GTTTTTTGTT | 0.999 ± 0.043
TTTTAACTAC | 1.18 ± 0.15
CGGTAATTGG | 1.01 ± 0.02
TGGGAGTATT | 0.9815 ± 0.0069
AGTCATGGAG | 0.987 ± 0.042
CAGGGGTTAT | 1.01 ± 0.015
AGAGCTGTTG | 1.01 ± 0.019
AATTTTATTT | 1.03 ± 0.062
AAGTGACAGG | 1 ± 0.022
ACGAGCTAGG | 1.13 ± 0.026
TGCGGCTTCA | 1.01 ± 0.016
TTTATGTTTG | 1.01 ± 0.035
CGGTAACTAT | 1.02 ± 0.017
AATTTGGCCT | 1.05 ± 0.035
GATGCGGGAC | 1.34 ± 0.07
CAGGGGTTAG | 0.9927 ± 0.0026

Sequence | switch fluorescence ratio
TGATTTATTT | 0.9927 ± 0.0048
GGGGAAGACG | 1.01 ± 0.082
GAGGTCTGTT | 0.959 ± 0.029
ACCTTTTACG | 1.15 ± 0.072
ATAGAGCCTA | 1.03 ± 0.02
AAGGCTAATG | 0.953 ± 0.011
TTCCAATTTT | 1.03 ± 0.027
CAAAGAAAGA | 0.991 ± 0.032
GGCCCTGGGA | 1.02 ± 0.029
GTAGCTCTTA | 1.04 ± 0.019
AAGCTCTGAG | 1.03 ± 0.017
ACGTTGGACA | 1.12 ± 0.05
AAGACTGAGC | 1.033 ± 0.0071
TAAGGTTGCA | 0.983 ± 0.032
ACGTTTGGTG | 0.962 ± 0.03
AATCATGGTT | 1 ± 0.028
CAATTACTAG | 1.01 ± 0.029
GAAAGAGGGG | 0.989 ± 0.021
GGGGAGAAAG | 0.9964 ± 0.0029
ATGGGGCGTG | 0.974 ± 0.016
ATTGTTATCG | 1.02 ± 0.14
TTTATTACAT | 0.996 ± 0.014
CGGTAGTGAG | 1.04 ± 0.014

Sequence | switch fluorescence ratio
CAGTGTTATG | 0.97 ± 0.014
TTTTAATGAT | 0.983 ± 0.024
AGTAGTATAT | 0.994 ± 0.03
GATACACCCG | 1.153 ± 0.0039
TTATCTGGAT | 1 ± 0.022
AATGGGGATT | 1.01 ± 0.035
GTATCTGGGG | 0.998 ± 0.059
AAGTGCACGG | 1 ± 0.036
TTCGCAGGTT | 1.05 ± 0.075
GCCGTCGTTG | 1 ± 0.019
TAGAAATTCG | 1.28 ± 0.5
CGGTGGACGA | 0.9977 ± 0.005
GCGTGCCGAC | 0.9793 ± 0.0041
GGGCTCAACT | 0.9946 ± 0.0053
TTAGCGACGG | 0.992 ± 0.03
TGTTAGAGGG | 1.01 ± 0.063
GGACGGGGAT | 1 ± 0.015
CGGGGAAATC | 1.03 ± 0.035
TTTGTTGGGT | 1 ± 0.022
CTAGTGGCTG | 1.02 ± 0.03
TAATGTTACT | 1.04 ± 0.039
CTATACAGCA | 1.06 ± 0.044
TTAAGCAGTT | 0.9853 ± 0.0056

Sequence | switch fluorescence ratio
CGAGGGATTC | 1.12 ± 0.048
TTTCGGAAAC | 1.1 ± 0.017
TTTCGGTCGC | 1.003 ± 0.008
GGGCCATGGA | 1.05 ± 0.099
GGATTAGCTG | 1.01 ± 0.049
GCCCGTGGAA | 0.9893 ± 0.0057
TTTAGCGGAT | 1.02 ± 0.019
CGTTAGGATG | 0.984 ± 0.011
GCGTGACGGG | 0.989 ± 0.037
TTGTGCGACT | 0.98 ± 0.019
CTGCACATGG | 1.7 ± 0.21
TTGTAAGGGT | 0.978 ± 0.017
TCCTTTTTGT | 1.41 ± 0.54
GCACTCAGGC | 0.994 ± 0.03
TTGACGTTTC | 1.02 ± 0.033
TTGACGCGTC | 1.02 ± 0.018
CATTAAGGCT | 1.01 ± 0.071
TGGGGCGGTG | 1.001 ± 0.0085
TGCTTTCCTT | 1.035 ± 0.0034

Reference: the supplement of paper PMC10126150
